{"source": "FireProtDB (doi:10.1074/jbc.274.2.717)", "details": "Homo sapiens, pH 8.7, Thermal, DSC, reversible: yes, whole UniProt chain shown", "note": "Values joined by “and” are separate entries in the source; they are usually repeats but may differ in a detail not shown here. Equal values may be shown once."}
{"protein": "Alpha-2-macroglobulin receptor-associated protein wild type, P30533 (protein) MAPRRVRSFLRGLPALLLLLLFLGPWPAASHGGKYSREKNQPKPSPKRESGEEFRMEKLNQLWEKAQRLHLPPVRLAELHADLKIQERDELAWKKLKLDGLDEDGEKEARLIRNLNVILAKYGLDGKKDARQVTSNSLSGTQEDGLDDPRLEKLWHKAKTSGKFSGEELDKLWREFLHHKEKVHEYNVLLETLSRTEEIHENVISPSDLSDIKGSVLHSRHTELKEKLRSINQGLDRLRRVSHQGYSTEAEFEEPRVIDLWDLAQSANLTDKELEAFREELKHFEAKIEKHNHYQKQLEIAHEKLRHAESVGDGERVSRSREKHALLEGRTKELGYTVKKHLQDLSGRISRARHNEL", "values": [{"measurement": "Tm", "setting": "Gly 20 mM, transition: 2", "result": 65.8, "unit": "°C"}, {"measurement": "unfolding enthalpy (calorimetric)", "setting": "Gly 20 mM, transition: 2", "result": 56, "unit": "kcal/mol"}, {"measurement": "unfolding enthalpy (calorimetric)", "setting": "Glycine 20 mM, transition: 2", "result": "45 kcal/mol and 41 kcal/mol and 59 kcal/mol"}, {"measurement": "unfolding enthalpy (calorimetric)", "setting": "Glycine 20 mM, transition: 4", "result": "42 kcal/mol and 41 kcal/mol"}]}
